{
  "source": "patent EP1903056A2",
  "key": {"[1]": {"target": "HLA-B*4403 (human)", "assay": "competition binding assay, purified HLA class I"}, "[2]": {"target": "HLA-B*4001 (human)", "assay": "competition binding assay, purified HLA class I"}},
  "data": [
    {"substance": "WEELSML (MAGE2 position 234, 7-mer) (peptide)", "values": [
      {"measurement": "IC50", "setting": "[1]", "result": 2.01, "unit": "µM"},
      {"measurement": "IC50", "setting": "[2]", "result": 10.4, "unit": "µM"}
    ]}
  ]
}
